Assay results published in publication PMC10388152 (PNAS Nexus, 2023).

Biological target: the molecule itself
Assay: dynamic light scattering

B1: C-terminal truncated ScBfr (ScBfr 1-152: residues 153-167 removed) (domain or fragment, Streptomyces coelicolor, UniProt Q9S2N0 1-152, looked up)
chain: MQGDPEVIEFLNEQLTAELTAINQYFLHAKLQDHKGWTKLAKYTRAESFDEMRHAEVLTDRILLLDGLPNYQRLFHVRVGQSVTEMFQADREVELEAIDRLRRGIEVMRAKHDITSANVFEAILADEEHHIDYLETQLDLIEKLGESLYLST
stoichiometry N: 24
